Experimental data published in PMC9132248.

Tests used:
Conditions in all cases: glycan lost; control: wild type APP-SNAP
[1] = confocal, fraction of cells with plasma-membrane APP-SNAP
[2] = live-cell confocal colocalisation with SiR-lysosome
[3] = confocal colocalisation with Golgi marker GRASP65
[4] = Aβ42 ELISA of culture medium (secreted)
[5] = Airyscan colocalisation with early endosome marker EEA1
[6] = Aβ42 ELISA of cell lysate (intracellular)
[7] = confocal, plasma-membrane share of total APP-SNAP intensity per cell
[8] = confocal imaging, size of APP-SNAP-positive vesicles

For “amyloid precursor protein (hAPP695-SNAP): N467Q”, the “localisation_or_trafficking, other: percent of cells with APP-SNAP in plasma membrane” value [1] was “decreases, 11.8 vs 35.3”, the localisation_or_trafficking [2] was “decreases” and the localisation_or_trafficking [3] was “no change”. The “other: proteolytic processing” value [4] was “increases”, the localisation_or_trafficking [5] was “no change” and the “other: proteolytic processing” value [6] was “increases”. The localisation_or_trafficking [7] was “decreases” and the localisation_or_trafficking [8] was “decreases”.
For “amyloid precursor protein (hAPP695-SNAP): N496Q”, the “localisation_or_trafficking, other: percent of cells with APP-SNAP in plasma membrane” value [1] was “decreases, 9.8 vs 35.3”, the localisation_or_trafficking [2] was “decreases” and the localisation_or_trafficking [3] was “no change”. The “other: proteolytic processing” value [4] was “increases”, the localisation_or_trafficking [5] was “no change” and the “other: proteolytic processing” value [6] was “increases”. The localisation_or_trafficking [7] was “decreases” and the localisation_or_trafficking [8] was “decreases”.
